Test results taken from doi:10.1101/2022.10.11.511834 (bioRxiv, 2022).
Residue numbers refer to the chain shown, from its start. Names may count otherwise.

B1: RNF216 (511-784, C688A, pSer719) (domain or fragment)
chain: QLIECRCCYGEFPFEELTQCADAHLFCKECLIRYAQEAVFGSGKLELSCMEGSCTCSFPTSELEKVLPQTILYKYYERKAEEEVAAAYADELVRCPSCSFPALLDSDVKRFSCPNPHCRKETCRKCQGLWKEHNGLTCEELAEKDDIKYRTSIEEKMTAARIRKCHKCGTGLIKSEGANRMSCRCGAQMCYLCRVSINGYDHFCQHPRSPGAPCQECSRCSLWTDPTEDDEKLIEEIQKEAEEEQKRKNGENTFKRIGPPLEKPVEKVQRVEAL
modifications: phosphoserine at 719
B2: HOIL-1 233-510 (C460A) (domain or fragment)
chain: DEEERARLAGEEEALRQYQQRKQQQQEGNYLQHVQLDQRSLVLNTEPAECPVCYSVLAPGEAVVLRECLHTFCRECLQGTIRNSQEAEVSCPFIDNTYSCSGKLLEREIKALLTPEDYQRFLDLGISIAENRSAFSYHCKTPDCKGWCFFEDDVNEFTCPVCFHVNCLLCKAIHEQMNCKEYQEDLALRAQNDVAARQTTEMLKVMLQQGEAMRCPQCQIVVQKKDGADWIRCTVCHTEICWVTKGPRWGPGGPGDTSGGCRCRVNGIPCHPSCQNCH
B3: HOIL-1 233-510 (helix-RBR), wild type (domain or fragment)
chain: B2 chain with A228C

How the values were obtained:
ubiquitin = ubiquitin (UniProt P0CG48 1-76); assay: crystal structure
M1-linked di-Ub = M1-linked di-Ub (UniProt P0CG48); assay: ITC

| binding result (ubiquitin) | Kd (M1-linked di-Ub) | Binder |
| --- | --- | --- |
| binds |  | B1 |
| binds |  | B2 |
|  | ~50 µM | B3 |
